The text below walks through data of the supplement of paper PMC9112550, “Optimization of the antimicrobial peptide Bac7 by deep mutational scanning” (BMC Biology, 2022).
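Further: peptides expressed intracellularly from a pBAD plasmid library in pooled LB shake-flask culture, induced with 0.3% L-arabinose, DNA abundance read by NGS, three biological replicates, DESeq2 with apeglm shrinkage.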

This series concerns Escherichia coli TOP10. Description: shrunken log2 fold change of peptide-encoding DNA abundance (4.5 h post-induction vs induction); higher = less antimicrobial activity (less host growth inhibition). The conditions noted are these: time post-induction: 4.5 h; library: site-saturation at positions 5, 18, 19, 20.
With RRIRPRPPRLPRPRPRPGFLPRP, the “shrunken log2 fold change” value was 0.167.

RRIRTRPPRLPRPRPRPSMPPRP: the “shrunken log2 fold change” value was -0.363.

Regarding RRIRARPPRLPRPRPRPGFYPRP, the “shrunken log2 fold change” value worked out at 0.0241.

As to RRIRHRPPRLPRPRPRPLKGPRP, the “shrunken log2 fold change” value was 0.0721.

Regarding RRIRPRPPRLPRPRPRPPEEPRP, the “shrunken log2 fold change” value worked out at 0.885.

As for RRIRRRPPRLPRPRPRPQRAPRP, the “shrunken log2 fold change” value is 0.226.

Take RRIRQRPPRLPRPRPRPYVVPRP: the “shrunken log2 fold change” value is -0.102.

As for RRIRIRPPRLPRPRPRPQGRPRP, the “shrunken log2 fold change” value is -0.25.

As for RRIRFRPPRLPRPRPRPKCCPRP, the “shrunken log2 fold change” value is -0.149.

Consider RRIRDRPPRLPRPRPRPENVPRP, for which the “shrunken log2 fold change” value was found to be 0.218.

With RRIRPRPPRLPRPRPRPQNWPRP, the “shrunken log2 fold change” value was 0.0202.

In the case of RRIRYRPPRLPRPRPRPKMDPRP, the “shrunken log2 fold change” value came to 0.0399.

With RRIRPRPPRLPRPRPRPGVCPRP, the “shrunken log2 fold change” value worked out at 0.428.

As for RRIRIRPPRLPRPRPRPMYIPRP, the “shrunken log2 fold change” value was -0.0364.

Take RRIRVRPPRLPRPRPRPGDGPRP: the “shrunken log2 fold change” value amounted to 0.532.

On to RRIRTRPPRLPRPRPRPRHWPRP, for which the “shrunken log2 fold change” value was 0.0182.

On to RRIRWRPPRLPRPRPRPQPGPRP, for which the “shrunken log2 fold change” value was 0.221.

For RRIRHRPPRLPRPRPRPSAEPRP, the “shrunken log2 fold change” value worked out at 0.217.

RRIRPRPPRLPRPRPRPEASPRP: the “shrunken log2 fold change” value is 0.0221.

Consider RRIRGRPPRLPRPRPRPMGSPRP, for which the “shrunken log2 fold change” value was -0.0284.

As to RRIRCRPPRLPRPRPRPIFYPRP, the “shrunken log2 fold change” value was -0.32.

Take RRIRYRPPRLPRPRPRPLSYPRP: the “shrunken log2 fold change” value was -0.273.

With RRIRKRPPRLPRPRPRPRLKPRP, the “shrunken log2 fold change” value came out at 0.365.

Consider RRIRHRPPRLPRPRPRPFGQPRP, for which the “shrunken log2 fold change” value was -0.162.

RRIRWRPPRLPRPRPRPDTWPRP: the “shrunken log2 fold change” value was found to be 0.0829.

For the sequence RRIRRRPPRLPRPRPRPIGDPRP, the “shrunken log2 fold change” value came out at 0.257.

With RRIRTRPPRLPRPRPRPTKLPRP, the “shrunken log2 fold change” value is -0.0813.

On to RRIRMRPPRLPRPRPRPTEGPRP, for which the “shrunken log2 fold change” value was determined as 0.269.

With RRIRARPPRLPRPRPRPHWEPRP, the “shrunken log2 fold change” value is -0.00635.

RRIRMRPPRLPRPRPRPKHGPRP: the “shrunken log2 fold change” value was 0.742.

On to RRIRTRPPRLPRPRPRPHQQPRP, for which the “shrunken log2 fold change” value was -0.0314.

For the sequence RRIRSRPPRLPRPRPRPQEVPRP, the “shrunken log2 fold change” value is -0.0423.

Consider RRIRPRPPRLPRPRPRPNTYPRP, for which the “shrunken log2 fold change” value was -0.67.

Take RRIRDRPPRLPRPRPRPWAVPRP: the “shrunken log2 fold change” value is -0.066.

Regarding RRIRIRPPRLPRPRPRPRLRPRP, the “shrunken log2 fold change” value is -0.0272.

As for RRIRWRPPRLPRPRPRPVNDPRP, the “shrunken log2 fold change” value was 0.118.

For the sequence RRIRCRPPRLPRPRPRPRPSPRP, the “shrunken log2 fold change” value came out at 0.695.

As for RRIRNRPPRLPRPRPRPPLAPRP, the “shrunken log2 fold change” value stood at 0.697.

For the sequence RRIRQRPPRLPRPRPRPLGYPRP, the “shrunken log2 fold change” value was -0.0704.

Turning to RRIRCRPPRLPRPRPRPINAPRP, the “shrunken log2 fold change” value came to 0.695.

In the case of RRIRLRPPRLPRPRPRPKNRPRP, the “shrunken log2 fold change” value worked out at 0.177.

RRIRKRPPRLPRPRPRPPVSPRP: the “shrunken log2 fold change” value is 0.0866.

With RRIRMRPPRLPRPRPRPNCTPRP, the “shrunken log2 fold change” value was -0.15.

As for RRIRHRPPRLPRPRPRPLFNPRP, the “shrunken log2 fold change” value is -0.58.

RRIRRRPPRLPRPRPRPTPQPRP: the “shrunken log2 fold change” value amounted to 1.52.

For the sequence RRIRARPPRLPRPRPRPTRHPRP, the “shrunken log2 fold change” value turned out to be 0.615.

In the case of RRIRGRPPRLPRPRPRPRMAPRP, the “shrunken log2 fold change” value amounted to 1.06.

For the sequence RRIRKRPPRLPRPRPRPKMEPRP, the “shrunken log2 fold change” value was found to be 0.368.

Regarding RRIRFRPPRLPRPRPRPMRKPRP, the “shrunken log2 fold change” value worked out at 0.222.

Regarding RRIRKRPPRLPRPRPRPGVCPRP, the “shrunken log2 fold change” value was 0.87.

As to RRIRSRPPRLPRPRPRPNCHPRP, the “shrunken log2 fold change” value is -0.316.

Take RRIRYRPPRLPRPRPRPTTFPRP: the “shrunken log2 fold change” value is -0.645.

In the case of RRIRGRPPRLPRPRPRPNAWPRP, the “shrunken log2 fold change” value was determined as 0.728.

Regarding RRIRIRPPRLPRPRPRPTKHPRP, the “shrunken log2 fold change” value was -0.528.

Turning to RRIRMRPPRLPRPRPRPYISPRP, the “shrunken log2 fold change” value is -0.353.

For the sequence RRIRKRPPRLPRPRPRPEPGPRP, the “shrunken log2 fold change” value turned out to be 0.608.

Consider RRIRVRPPRLPRPRPRPNYTPRP, for which the “shrunken log2 fold change” value is -0.533.

With RRIRYRPPRLPRPRPRPRGQPRP, the “shrunken log2 fold change” value came out at 0.0255.

On to RRIRDRPPRLPRPRPRPLVPPRP, for which the “shrunken log2 fold change” value amounted to 0.249.

As to RRIRKRPPRLPRPRPRPIRVPRP, the “shrunken log2 fold change” value is -0.0018.

As for RRIRCRPPRLPRPRPRPDQPPRP, the “shrunken log2 fold change” value is 0.171.

As for RRIRCRPPRLPRPRPRPEQQPRP, the “shrunken log2 fold change” value is -0.0118.

Regarding RRIRWRPPRLPRPRPRPPLGPRP, the “shrunken log2 fold change” value worked out at 0.416.

As for RRIRSRPPRLPRPRPRPNHYPRP, the “shrunken log2 fold change” value was -0.789.

Consider RRIRIRPPRLPRPRPRPYVFPRP, for which the “shrunken log2 fold change” value is -0.0874.

With RRIRTRPPRLPRPRPRPSWVPRP, the “shrunken log2 fold change” value is -0.165.

As to RRIRQRPPRLPRPRPRPKSSPRP, the “shrunken log2 fold change” value was found to be 0.0321.

Consider RRIRKRPPRLPRPRPRPMGGPRP, for which the “shrunken log2 fold change” value stood at 0.0559.

RRIRNRPPRLPRPRPRPSSCPRP: the “shrunken log2 fold change” value is -0.063.

Regarding RRIRCRPPRLPRPRPRPWCFPRP, the “shrunken log2 fold change” value is -0.712.

On to RRIRNRPPRLPRPRPRPTLQPRP, for which the “shrunken log2 fold change” value stood at 0.0909.

As for RRIRRRPPRLPRPRPRPGHMPRP, the “shrunken log2 fold change” value amounted to 0.101.

On to RRIRQRPPRLPRPRPRPGADPRP, for which the “shrunken log2 fold change” value came out at 0.47.

For RRIRPRPPRLPRPRPRPEVIPRP, the “shrunken log2 fold change” value is 0.0141.

Take RRIRARPPRLPRPRPRPYCNPRP: the “shrunken log2 fold change” value is -0.378.

On to RRIRWRPPRLPRPRPRPSAHPRP, for which the “shrunken log2 fold change” value is 0.062.

With RRIRARPPRLPRPRPRPVPPPRP, the “shrunken log2 fold change” value worked out at 1.05.

On to RRIRARPPRLPRPRPRPLCAPRP, for which the “shrunken log2 fold change” value was found to be 0.704.

In the case of RRIRDRPPRLPRPRPRPKTTPRP, the “shrunken log2 fold change” value amounted to 0.0604.

On to RRIRGRPPRLPRPRPRPWYIPRP, for which the “shrunken log2 fold change” value is -0.291.

For the sequence RRIRTRPPRLPRPRPRPNGPPRP, the “shrunken log2 fold change” value is -0.277.

In the case of RRIRRRPPRLPRPRPRPGDPPRP, the “shrunken log2 fold change” value amounted to 0.593.

For RRIRPRPPRLPRPRPRPFWMPRP, the “shrunken log2 fold change” value is -0.00291.

In the case of RRIRGRPPRLPRPRPRPKSQPRP, the “shrunken log2 fold change” value stood at 0.556.

With RRIRPRPPRLPRPRPRPFAYPRP, the “shrunken log2 fold change” value is -0.135.

For RRIRFRPPRLPRPRPRPKGIPRP, the “shrunken log2 fold change” value is -0.0392.

As to RRIRNRPPRLPRPRPRPMSEPRP, the “shrunken log2 fold change” value is -0.0254.

For RRIRMRPPRLPRPRPRPFQHPRP, the “shrunken log2 fold change” value is 0.0658.

Regarding RRIRKRPPRLPRPRPRPVWNPRP, the “shrunken log2 fold change” value is -0.106.

As for RRIRERPPRLPRPRPRPAVRPRP, the “shrunken log2 fold change” value was found to be 0.00239.

Regarding RRIRSRPPRLPRPRPRPRMCPRP, the “shrunken log2 fold change” value is -0.155.

On to RRIRSRPPRLPRPRPRPVKRPRP, for which the “shrunken log2 fold change” value is 0.26.

Turning to RRIRARPPRLPRPRPRPSMAPRP, the “shrunken log2 fold change” value was found to be 0.333.

Turning to RRIRCRPPRLPRPRPRPREAPRP, the “shrunken log2 fold change” value came out at 0.521.

Turning to RRIRARPPRLPRPRPRPDYYPRP, the “shrunken log2 fold change” value is -0.135.

For RRIRARPPRLPRPRPRPGWCPRP, the “shrunken log2 fold change” value turned out to be 0.465.

RRIRVRPPRLPRPRPRPQCIPRP: the “shrunken log2 fold change” value was determined as 0.101.

Consider RRIRNRPPRLPRPRPRPRLDPRP, for which the “shrunken log2 fold change” value was 0.0403.

Take RRIRDRPPRLPRPRPRPTINPRP: the “shrunken log2 fold change” value was 0.135.

As for RRIRHRPPRLPRPRPRPMQFPRP, the “shrunken log2 fold change” value was 0.00869.

As for RRIRERPPRLPRPRPRPTRSPRP, the “shrunken log2 fold change” value was -0.196.

As for RRIRKRPPRLPRPRPRPIYAPRP, the “shrunken log2 fold change” value was 0.144.

For RRIRIRPPRLPRPRPRPGAKPRP, the “shrunken log2 fold change” value turned out to be 0.126.

With RRIRGRPPRLPRPRPRPQPNPRP, the “shrunken log2 fold change” value amounted to 0.679.

For the sequence RRIRNRPPRLPRPRPRPHHLPRP, the “shrunken log2 fold change” value is -0.427.

For the sequence RRIRPRPPRLPRPRPRPHTRPRP, the “shrunken log2 fold change” value was 0.171.

In the case of RRIRGRPPRLPRPRPRPQSSPRP, the “shrunken log2 fold change” value is 0.000815.

For the sequence RRIRSRPPRLPRPRPRPDDNPRP, the “shrunken log2 fold change” value was determined as 0.00575.

On to RRIRQRPPRLPRPRPRPPEMPRP, for which the “shrunken log2 fold change” value is -0.162.

With RRIRSRPPRLPRPRPRPTKTPRP, the “shrunken log2 fold change” value is -0.0829.

As for RRIRMRPPRLPRPRPRPNQYPRP, the “shrunken log2 fold change” value was -0.218.

With RRIRHRPPRLPRPRPRPTLSPRP, the “shrunken log2 fold change” value was -0.17.

In the case of RRIRSRPPRLPRPRPRPMNWPRP, the “shrunken log2 fold change” value is -0.0283.

With RRIRRRPPRLPRPRPRPIAHPRP, the “shrunken log2 fold change” value was -0.0355.

RRIRMRPPRLPRPRPRPCTRPRP: the “shrunken log2 fold change” value was -0.0828.

Consider RRIRIRPPRLPRPRPRPGTWPRP, for which the “shrunken log2 fold change” value is -0.475.

Turning to RRIRYRPPRLPRPRPRPFFAPRP, the “shrunken log2 fold change” value is -0.18.

For RRIRWRPPRLPRPRPRPMSTPRP, the “shrunken log2 fold change” value was -0.111.

In the case of RRIRGRPPRLPRPRPRPYLAPRP, the “shrunken log2 fold change” value turned out to be 0.398.

Take RRIRLRPPRLPRPRPRPMYEPRP: the “shrunken log2 fold change” value came to 0.129.

In the case of RRIRNRPPRLPRPRPRPRDSPRP, the “shrunken log2 fold change” value was 0.0829.

Regarding RRIRSRPPRLPRPRPRPIMLPRP, the “shrunken log2 fold change” value is -0.156.

For the sequence RRIRTRPPRLPRPRPRPNIVPRP, the “shrunken log2 fold change” value is -0.192.

As to RRIRQRPPRLPRPRPRPPNDPRP, the “shrunken log2 fold change” value is 0.0155.

RRIRIRPPRLPRPRPRPWGLPRP: the “shrunken log2 fold change” value was -0.192.
